Laboratory results as given in patent US7060677B1, “Antimicrobial activity of the first cationic cluster of human lactoferrin” (priority 1999, dated 2006).
Entries after “also recorded” stand apart in the source; their conditions may differ. Marks after values point to notes of the source that are not given here.

What was measured:
[1] = tested on: antibiotic resistant S. aureus; test: Assay for antibacterial activity (in vitro killing, viable count); assay type: cell-based, Staphylococcus aureus strain 2141; conditions: for CFU of bacteria, antibiotic resistant S. aureus: 4 μM protein, approx. 1 × 10^6 CFU, PBS-Tw (pH 6.0), 3 h at 37° C., mean ± SD of 3–5 experiments
Procedure: (§1) Listeria monocytogenes strain EGD. Klebsiella pneumoniae (43816), and Escherichia coli O54 were purchased from the American Type Culture Collection (Rockville, Md.). Antibiotic resistant S. aureus, K. pneumoniae and E. coli were cultured overnight in nutrient broth (Oxoid, Basingstoke, UK) at 37° C., diluted in tryptase soya broth (TSB, Oxoid) and cultured for an additional 2 h in a shaking waterbath at 37° C. L. monocytogenes was cultured overnight in brain heart infusion broth (BHI, Oxoid) at 37° C. diluted and cultured for an additional 2 h in a shaking waterbath at 37° C.
(§2) In short, bacteria were washed with phosphate-buffered saline (PBS) (pH 7.4) and diluted to a concentration of approximately 2×10^6 CFU/ml of phosphate-buffered saline (pH 6.0) supplemented with 0.1% (v/v) Tween-20 (hereafter designated as PBS-Tw). […] At various time intervals (range 0–4 h) after incubation at 37° C. the number of viable bacteria was determined microbiologically. As negative controls, bovine serum albumin (BSA; Sigma) or no peptide were included.

[2] = Pharmacology of 99mTc-labeled hLF and peptides by scintigraphy in infected mice; conditions: mouse, in vivo
Procedure: Lactoferrins and related peptides were labeled with ^99mTechnetium (^99mTc) as described (22, 23). Briefly, 10 μl of a peptide solution (1 mg/ml of HAc) was added to 2 μl of an aseptic solution of 0.5 mg of stannous pyrophosphate/ml (Dept. of Clinical Pharmacy and Toxicology. Leiden University Medical Center (LUMC). Leiden. The Netherlands). Immediately thereafter, 4 μl of a solution of 10 mg of KBH4 (crystalline. Sigma) per ml of 0.1 M NaOH was added. After addition of 0.1 ml of ^99mTc-sodium pertechnetate solution (200 MBq/ml. Mallinckrodt Medical BV, Petten, The Netherlands), the mixture was gently stirred at ambient temperature for 30 min and then was ready for use. Quality control of the labeling was performed by RP-HPLC analysis using a Sep-Pak C18 cartridge (Waters, Milford, Mass.) in 20 ml of 0.01 M HAc. After rinsing with 20 ml of 0.01 M HAc, proteins and peptides were eluted with 2 ml of methanol (Sigma). […]
On the scintigrams, anatomically adjusted regions of interest (ROI) were drawn over the various organs and both thighs providing data about clearance of ^99mTc-peptides and accumulation at the site of infection. […] The amount of radioactivity in the heart was corrected for decay and expressed as a percentage of injected dose (% ID).

[3] = tested on: bacteria; test: Assay for membrane permeability (propidium iodide, FACS), bacteria in general; assay type: cell-based
Procedure: (§3) Changes in the membrane permeability of bacteria upon exposure to hLF, hLF^−3N and related peptides were monitored after incubation with propidium iodide (PI; Sigma), using FACS analysis (12, 20). Stock solutions of PI (1 mg/ml of deionized water) were prepared. Approximately 2×10^6 bacteria/ml of PBS-Tw were incubated for various intervals at 37° C., washed, incubated for 5 min with 1 μg of PI/ml (final concentration) and then analyzed with a FACScan (Becton & Dickinson, CA) equipped with a argon-laser at 488 nm. The photomultiplier voltages were routinely set at 500 V for PI fluorescence intensity in the second channel. Data acquisition and analysis were controlled using the Lysis II software.

[4] = tested on: E. coli; test: Assay for antibacterial activity (in vitro killing, viable count); assay type: cell-based, Escherichia coli O54; conditions: for CFU of bacteria, E. coli: 4 μM protein, approx. 1 × 10^6 CFU, PBS-Tw (pH 6.0), 3 h at 37° C., mean ± SD of 3–5 experiments
Procedure: as §1, §2

[5] = tested on: E. coli; test: Assay for non-specific esterase activity (SFDA, FACS); assay type: cell-based, Escherichia coli; conditions: within 1–2 hours after addition
Procedure: (§4) As an indication of intracellular effects of hLF, hLF^−3N and related peptides (e.g., hLF (1–11) and hLF(21–31) in bacteria, the non-specific esterase activity of bacteria upon exposure to these antimicrobial proteins/peptides was assessed using 5-sulfofluorescein diacetate (SFDA; Molecular Probes, Leiden, The Netherlands) and FACS analysis (21). For these experiments, a stock solution of SFDA (1 mg/ml of ethanol) was prepared. Approximately 2×10^6 CFU of bacteria/ml of PBS-Tw were incubated with various concentrations of hLF, hLF^−3N and hLF related peptides for various intervals at 37° C., washed, incubated with 100 μM of SFDA/ml (final concentration ethanol 20% v/v) for 20 min at room temperature in the dark and then analyzed with a FACScan using the photomultiplier voltage of the first channel set at 700 V.

[6] = tested on: L. monocytogenes; test: Assay for membrane permeability (propidium iodide, FACS); assay type: cell-based, Listeria monocytogenes; conditions: period of analysis 4 h after addition of the protein
Procedure: as §3

[7] = tested on: antibiotic resistant S. aureus; test: Experimental thigh muscle infection; assay type: in vivo, mice; conditions: FIG. 5
Procedure: In short, specific pathogen-free, male. Swiss mice weighing 20–25 g (Broekman Institute, Someren, The Netherlands) were anaesthetized with a single intraperitoneal injection of 0.1 ml of saline containing 1 mg fluanisone and 0.03 mg fentanyl citrate (Hypnorm, Janssen Pharmaceutics, Tilburg, The Netherlands). Preceding scintigraphy, a subcutaneous injection of 0.1 ml, containing 0.2 mg diazepam (Valium, Hoffmann-La Roche, Mijdrecht, The Netherlands) was administered. […] As a control, mice were injected with 0.2 ml of saline containing BSA or saline without any peptide. […] Next, the infected thigh muscles were removed and, after weighing, homogenized in 4 ml of PBS. Appropriate dilutions of the homogenates were applied onto diagnostic sensitivity test plates (Oxoid), and the number of colonies counted after an overnight culture at 37° C. Results are expressed as the number of CFUs per gram of infected tissue.

[8] = tested on: E. coli; test: Assay for membrane permeability (propidium iodide, FACS); assay type: cell-based, Escherichia coli; conditions: period of analysis 4 h after addition of the protein
Procedure: as §3

[9] = tested on: bacteria; test: Assay for non-specific esterase activity (SFDA, FACS), bacteria in general; assay type: cell-based
[10] = tested on: L. monocytogenes; test: Assay for antibacterial activity (in vitro killing, viable count); assay type: cell-based, Listeria monocytogenes strain EGD; conditions: for CFU of bacteria, L. monocytogenes: 4 μM protein, approx. 1 × 10^6 CFU, PBS-Tw (pH 6.0), 3 h at 37° C., mean ± SD of 3–5 experiments
Procedure: as §1, §2

[11] = tested on: L. monocytogenes; test: Assay for non-specific esterase activity (SFDA, FACS); assay type: cell-based, Listeria monocytogenes; conditions: within 1–2 hours after addition; FIG. 4: 4 μM
Procedure: as §4

[12] = tested on: the various bacteria (L. monocytogenes, antibiotic resistant S. aureus, K. pneumoniae, E. coli); test: Assay for antibacterial activity, statements on the various bacteria together; assay type: cell-based
Procedure: as §1, §2

[13] = tested on: K. pneumoniae; test: Assay for antibacterial activity (in vitro killing, viable count); assay type: cell-based, Klebsiella pneumoniae (43816)
Procedure: as §1, §2

B1: hLF: Natural human lactoferrin (Mr 77,000) purified from the fresh milk of a single donor, N-terminus intact; SEQ ID NO:1 (protein, listed as Homo sapiens)
chain: GRRRRSVQWCAVSQPEATKCFQWQRNMRKVRGPPVSCIKRDSPIQCIQAIAENRADAVTLDGGFIYEAGLAPYKLRPVAAEVYGTERQPRTHYYAVAVVKKGGSFQLNELQGLKSCHTGLRRTAGWNVPIGTLRPFLNWTGPPEPIEAAVARFFSASCVPGADKGQFPNLCRLCAGTGENKCAFSSQEPYFSYSGAFKCLRDGAGDVAFIRESTVFEDLSDEAERDEYELLCPDNTRKPVDKFKDCHLARVPSHAVVARSVNGKEDAIWNLLRQAQEKFGKDKSPKFQLFGSPSGQKDLLFKDSAIGFSRVPPRIDSGLYLGSGYFTAIQNLRKSEEEVAARRARVVWCAVGEQELRKCNQWSGLSEGSVTCSSASTTEDCIALVLKGEADAMSLDGGYVYTAGKCGLVPVLAENYKSQQSSDPDPNCVDRPVEGYLAVAVVRRSDTSLTWNSVKGKKSCHTAVDRTAGWNIPMGLLFNQTGSCKFDEYFSQSCAPGSDPRSNLCALCIGDEQGENKCVPNSNERYYGYTGAFRCLAENAGDVAFVKDVTVLQNTDGNNNEAWAKDLKLADFALLCLDGKRKPVTEARSCHLAMAPNHAVVSRMDKVERLKQVLLHQQAKFGRNGSDCPDKFCLFQSETKNLLFNDNTECLARLHGKTTYEKYLGPQYVAGITNLKKCSTSPLLEACEFLRK
- CFU of bacteria, antibiotic resistant S. aureus [1]: 6.9 ± 2.1 × 10^4*^,** CFU
- CFU of bacteria, antibiotic resistant S. aureus ([1]; listed as hLF^3N): 5.6 ± 1.9 × 10^5 CFU
- Killing of antibiotic resistant S. aureus by the protein (in words) ([1]; dose-dependent, FIGS. 1A–1E): killed
- Amount at the site of infection, hLF compared with hLF^−3N [2]: did not differ
- mean t1/2 of removal from the circulation [2]: approximately 19 min
- Membrane permeability of the bacteria, proteins (conclusions) [3]: without affecting
- CFU of bacteria, E. coli [4]: 3.0 ± 0.3 × 10^6 CFU
- CFU of bacteria, E. coli ([4]; listed as hLF^3N): 9.5 ± 8.2 × 10^5 CFU
- Killing of E. coli by the protein (in words) ([4]; Table 1, even at concentrations up to 12 μM): not killed
- Intracellular non-specific esterase activity of E. coli [5]: not
- Change of the membrane permeability of L. monocytogenes [6]: not followed by a significant change
- Amount at which maximum effects on viable bacteria were seen ([7]; mice infected with antibiotic resistant S. aureus, 24 h after injection): 1 nmol
- Number of viable bacteria in mice infected with antibiotic resistant S. aureus ([7]; within 24 h after intravenous injection, thigh muscle): reduced in a dose-dependent fashion
- Change of the membrane permeability of E. coli [8]: not followed by a significant change
- Non-specific esterase activity of the bacteria (conclusions) [9]: inhibited
- Effect on the non-specific esterase activity at 4° C. ([9]; 4° C.): no affect; also recorded: not able
- CFU of bacteria, L. monocytogenes [10]: 2.4 ± 0.9 × 10^4*^,** CFU
- CFU of bacteria, L. monocytogenes ([10]; listed as hLF^3N): 4.8 ± 2.4 × 10^5 CFU
- Killing of L. monocytogenes by the protein (in words) ([10]; dose-dependent, FIGS. 1A–1E): killed
- Intracellular non-specific esterase activity of L. monocytogenes [11]: inhibited
- Speed of killing these bacteria, natural hLF compared with hLF^−3N ([12]; 4 μM, FIGS. 1C–1E, p<0.05): faster (p<0.05) than hLF^−3N
- Effect on the number of viable bacteria at 4° C. ([12]; 4° C.): no affect; also recorded: not able to kill bacteria
- Potency in killing, natural hLF compared with hLF^−3N ([12]; dose-dependent killing, FIGS. 1A–1B, p<0.05): more potent (p<0.05) than hLF^−3N
- CFU of bacteria, K. pneumoniae ([13]; 4 μM protein, approx. 1 × 10^6 CFU, PBS-Tw (pH 6.0), 3 h at 37° C., mean ± SD of 3–5 experiments, listed as hLF^3N): 6.8 ± 1.5 × 10^5 CFU
- Killing of K. pneumoniae by the protein (in words) ([13]; dose-dependent, FIGS. 1A–1E): killed
